B1: A022600096 (protein)
chain: DVQLVESGGGLVQPGGSLRLSCVASGYVHKINFYGWYRQAPGKEREKVAHISIGDQTDYADSAKGRFTISRDESKNTVYLQMNSLRPEDTALYYCRALSRIWPYDYWGQGTLVTVSSGGGGSGGGGSGGGGSGGGGSGGGGSGGGGSGGGGSEVQLVESGGGLVQPGGSLRLSCVASGFTFSSFAMTWVRRPPGKGLEWVATITNGGVTSYRDSVKGRFTISRDNAKNTLYLEMTSLNPEDTAVYICANARRTGPRAPTDIGSYRGQGTLVTVSSGGGGSGGGGSGGGGSGGGGSGGGGSGGGGSGGGGSEVQLVESGGGVVQPGGSLRLSCAASGFTFRSFGMSWVRQAPGKGPEWVSSISGSGSDTLYADSVKGRFTISRDNSKNTLYLQMNSLRPEDTALYYCTIGGSLSRSSQGTLVTVSSA
B2: A022600122 (protein)
chain: DVQLVESGGGVVQPGGSLRLSCVASGYVHKINFYGWYRQAPGKEREKVAHISIGDQTDYADSAKGRFTISRDESKNTVYLQMNSLRPEDTALYYCRALSRIWPYDYWGQGTLVTVSSGGGGSEVQLVESGGGLVQPGGSLRLSCVASGFTFSSFAMTWVRRPPGKGLEWVATITNGGVTSYRDSVKGRFTISRDNAKNTLYLEMTSLNPEDTAVYICANARRTGPRAPTDIGSYRGQGTLVTVSSGGGGSGGGGSGGGGSGGGGSGGGGSGGGGSGGGGSEVQLVESGGGLVQPGGSLRLSCVASGSIFRSVFSSSTMEWYRQPPGKKRELVARIAPGDGTNYGALYADSVKGRFTISRDDAKKTVDLQMNSLKPEDTGVYFCASGVAWGQGTLVTVSSGGGGSGGGGSGGGGSGGGGSGGGGSGGGGSGGGGSEVQLVESGGGVVQPGGSLRLSCAASGFTFRSFGMSWVRQAPGKGPEWVSSISGSGSDTLYADSVKGRFTISRDNSKNTLYLQMNSLRPEDTALYYCTIGGSLSRSSQGTLVTVSSA
B3: A022600134 (protein)
chain: DVQLVESGGGVVQPGGSLRLSCVASGYVHKINFYGWYRQAPGKEREKVAHISIGDQTDYADSAKGRFTISRDESKNTVYLQMNSLRPEDTALYYCRALSRIWPYDYWGQGTLVTVSSGGGGSEVQLVESGGGLVQPGGSLRLSCVASGSIFRSVFSSSTMEWYRQPPGKKRELVARIAPGDGTNYGALYADSVKGRFTISRDDAKKTVDLQMNSLKPEDTGVYFCASGVAWGQGTLVTVSSGGGGSGGGGSGGGGSGGGGSEVQLVESGGGLVQPGGSLRLSCVASGFTFSSFAMTWVRRPPGKGLEWVATITNGGVTSYRDSVKGRFTISRDNAKNTLYLEMTSLNPEDTAVYICANARRTGPRAPTDIGSYRGQGTLVTVSSGGGGSGGGGSGGGGSGGGGSGGGGSGGGGSGGGGSEVQLVESGGGVVQPGGSLRLSCAASGFTFRSFGMSWVRQAPGKGPEWVSSISGSGSDTLYADSVKGRFTISRDNSKNTLYLQMNSLRPEDTALYYCTIGGSLSRSSQGTLVTVSSA
B4: A022600103 (protein)
chain: DVQLVESGGGVVQPGGSLRLSCVASGYVHKINFYGWYRQAPGKEREKVAHISIGDQTDYADSAKGRFTISRDESKNTVYLQMNSLRPEDTALYYCRALSRIWPYDYWGQGTLVTVSSGGGGSEVQLVESGGGLVQPGGSLRLSCVASGFTFSSFAMTWVRRPPGKGLEWVATITNGGVTSYRDSVKGRFTISRDNAKNTLYLEMTSLNPEDTAVYICANARRTGPRAPTDIGSYRGQGTLVTVSSGGGGSGGGGSGGGGSGGGGSGGGGSGGGGSGGGGSEVQLVESGGGVVQPGGSLRLSCAASGFTFRSFGMSWVRQAPGKGPEWVSSISGSGSDTLYADSVKGRFTISRDNSKNTLYLQMNSLRPEDTALYYCTIGGSLSRSSQGTLVTVSSA
B5: A022600133 (protein)
chain: DVQLVESGGGVVQPGGSLRLSCVASGYVHKINFYGWYRQAPGKEREKVAHISIGDQTDYADSAKGRFTISRDESKNTVYLQMNSLRPEDTALYYCRALSRIWPYDYWGQGTLVTVSSGGGGSEVQLVESGGGLVQPGGSLRLSCVASGSIFRSVFSSSTMEWYRQPPGKKRELVARIAPGDGTNYGALYADSVKGRFTISRDDAKKTVDLQMNSLKPEDTGVYFCASGVAWGQGTLVTVSSGGGGSGGGGSGGGGSGGGGSGGGGSGGGGSGGGGSEVQLVESGGGLVQPGGSLRLSCVASGFTFSSFAMTWVRRPPGKGLEWVATITNGGVTSYRDSVKGRFTISRDNAKNTLYLEMTSLNPEDTAVYICANARRTGPRAPTDIGSYRGQGTLVTVSSGGGGSGGGGSGGGGSGGGGSGGGGSGGGGSGGGGSEVQLVESGGGVVQPGGSLRLSCAASGFTFRSFGMSWVRQAPGKGPEWVSSISGSGSDTLYADSVKGRFTISRDNSKNTLYLQMNSLRPEDTALYYCTIGGSLSRSSQGTLVTVSSA
B6: A022600131 (protein)
chain: DVQLVESGGGVVQPGGSLRLSCVASGYVHKINFYGWYRQAPGKEREKVAHISIGDQTDYADSAKGRFTISRDESKNTVYLQMNSLRPEDTALYYCRALSRIWPYDYWGQGTLVTVSSGGGGSEVQLVESGGGLVQPGGSLRLSCVASGFTFSSFAMTWVRRPPGKGLEWVATITNGGVTSYRDSVKGRFTISRDNAKNTLYLEMTSLNPEDTAVYICANARRTGPRAPTDIGSYRGQGTLVTVSSGGGGSGGGGSGGGGSGGGGSEVQLVESGGGLVQPGGSLRLSCVASGSIFRSVFSSSTMEWYRQPPGKKRELVARIAPGDGTNYGALYADSVKGRFTISRDDAKKTVDLQMNSLKPEDTGVYFCASGVAWGQGTLVTVSSGGGGSGGGGSGGGGSGGGGSGGGGSGGGGSGGGGSEVQLVESGGGVVQPGGSLRLSCAASGFTFRSFGMSWVRQAPGKGPEWVSSISGSGSDTLYADSVKGRFTISRDNSKNTLYLQMNSLRPEDTALYYCTIGGSLSRSSQGTLVTVSSA
B7: A022600104 (protein)
chain: DVQLVESGGGVVQPGGSLRLSCVASGYVHKINFYGWYRQAPGKEREKVAHISIGDQTDYADSAKGRFTISRDESKNTVYLQMNSLRPEDTALYYCRALSRIWPYDYWGQGTLVTVSSGGGGSGGGSEVQLVESGGGLVQPGGSLRLSCVASGFTFSSFAMTWVRRPPGKGLEWVATITNGGVTSYRDSVKGRFTISRDNAKNTLYLEMTSLNPEDTAVYICANARRTGPRAPTDIGSYRGQGTLVTVSSGGGGSGGGGSGGGGSGGGGSGGGGSGGGGSGGGGSEVQLVESGGGVVQPGGSLRLSCAASGFTFRSFGMSWVRQAPGKGPEWVSSISGSGSDTLYADSVKGRFTISRDNSKNTLYLQMNSLRPEDTALYYCTIGGSLSRSSQGTLVTVSSA
B8: A022600102 (protein)
chain: DVQLVESGGGVVQPGGSLRLSCVASGYVHKINFYGWYRQAPGKEREKVAHISIGDQTDYADSAKGRFTISRDESKNTVYLQMNSLRPEDTALYYCRALSRIWPYDYWGQGTLVTVSSAAAEVQLVESGGGLVQPGGSLRLSCVASGFTFSSFAMTWVRRPPGKGLEWVATITNGGVTSYRDSVKGRFTISRDNAKNTLYLEMTSLNPEDTAVYICANARRTGPRAPTDIGSYRGQGTLVTVSSGGGGSGGGGSGGGGSGGGGSGGGGSGGGGSGGGGSEVQLVESGGGVVQPGGSLRLSCAASGFTFRSFGMSWVRQAPGKGPEWVSSISGSGSDTLYADSVKGRFTISRDNSKNTLYLQMNSLRPEDTALYYCTIGGSLSRSSQGTLVTVSSA
B9: A022600105 (protein)
chain: DVQLVESGGGVVQPGGSLRLSCVASGYVHKINFYGWYRQAPGKEREKVAHISIGDQTDYADSAKGRFTISRDESKNTVYLQMNSLRPEDTALYYCRALSRIWPYDYWGQGTLVTVSSGGGGSGGGGSGGGGSGGGGSEVQLVESGGGLVQPGGSLRLSCVASGFTFSSFAMTWVRRPPGKGLEWVATITNGGVTSYRDSVKGRFTISRDNAKNTLYLEMTSLNPEDTAVYICANARRTGPRAPTDIGSYRGQGTLVTVSSGGGGSGGGGSGGGGSGGGGSGGGGSGGGGSGGGGSEVQLVESGGGVVQPGGSLRLSCAASGFTFRSFGMSWVRQAPGKGPEWVSSISGSGSDTLYADSVKGRFTISRDNSKNTLYLQMNSLRPEDTALYYCTIGGSLSRSSQGTLVTVSSA
B10: A022600132 (protein)
chain: DVQLVESGGGVVQPGGSLRLSCVASGYVHKINFYGWYRQAPGKEREKVAHISIGDQTDYADSAKGRFTISRDESKNTVYLQMNSLRPEDTALYYCRALSRIWPYDYWGQGTLVTVSSGGGGSEVQLVESGGGLVQPGGSLRLSCVASGFTFSSFAMTWVRRPPGKGLEWVATITNGGVTSYRDSVKGRFTISRDNAKNTLYLEMTSLNPEDTAVYICANARRTGPRAPTDIGSYRGQGTLVTVSSGGGGSGGGSEVQLVESGGGLVQPGGSLRLSCVASGSIFRSVFSSSTMEWYRQPPGKKRELVARIAPGDGTNYGALYADSVKGRFTISRDDAKKTVDLQMNSLKPEDTGVYFCASGVAWGQGTLVTVSSGGGGSGGGGSGGGGSGGGGSGGGGSGGGGSGGGGSEVQLVESGGGVVQPGGSLRLSCAASGFTFRSFGMSWVRQAPGKGPEWVSSISGSGSDTLYADSVKGRFTISRDNSKNTLYLQMNSLRPEDTALYYCTIGGSLSRSSQGTLVTVSSA

The target in the test is human GPC3 on cells (human) (UniProt P51654). Nature of the test: cell-based or functional assay.
The molecule B1 yielded an IC50 (M), Incucyte human TDC HepG2-Nuclight green assay, E:T 15:1, 72 h of 1.4e-09 M and a Max % Killing, Incucyte human TDC HepG2-Nuclight green assay, 72 h of 72%.

In turn, B2 showed a HepG2 on Incucyte IC50 (M), human TDC, E:T 15:1, 60 h of 5.3e-10 M; a HepG2 on Incucyte Max % killing, 60 h of 93%; a Huh7 on xCELLigence IC50 (M), human TDC, E:T 15:1, 60 h of 2.61e-10 M; a Huh7 on xCELLigence Max % killing, 60 h of 101%. For the same molecule, the IC50 (M), Incucyte human TDC HepG2-Nuclight green assay, E:T 15:1 (Step 2) stood at 4.45e-10 M and the Max % Killing, Incucyte human TDC HepG2-Nuclight green assay (Step 2) turned out to be 92%.

B3 came in with an IC50 (M), Incucyte human TDC HepG2-Nuclight green assay, E:T 15:1 (Step 2) of 5.28e-10 M and a Max % Killing, Incucyte human TDC HepG2-Nuclight green assay (Step 2) of 92%.

Consider B4, for which the HepG2 on Incucyte IC50 (M), human TDC, E:T 15:1, 60 h was found to be 1.23e-09 M; the HepG2 on Incucyte Max % killing, 60 h turned out to be 96%; the Huh7 on xCELLigence IC50 (M), human TDC, E:T 15:1, 60 h was 7.11e-09 M; the Huh7 on xCELLigence Max % killing, 60 h was found to be 71%. In addition, the IC50 (M), Incucyte human TDC HepG2-Nuclight green assay, E:T 15:1 (Step 2) worked out at 5.43e-10 M; the IC50 (M), Incucyte human TDC HepG2-Nuclight green assay, E:T 15:1, 72 h was found to be 2.04e-09 M; the Max % Killing, Incucyte human TDC HepG2-Nuclight green assay (Step 2) turned out to be 90%; the Max % Killing, Incucyte human TDC HepG2-Nuclight green assay, 72 h came out at 92%.

Regarding B5, the IC50 (M), Incucyte human TDC HepG2-Nuclight green assay, E:T 15:1 (Step 2) was determined as 4.08e-10 M and the Max % Killing, Incucyte human TDC HepG2-Nuclight green assay (Step 2) was 92%.

B6 came in with an IC50 (M), Incucyte human TDC HepG2-Nuclight green assay, E:T 15:1 (Step 2) of 4.44e-10 M and a Max % Killing, Incucyte human TDC HepG2-Nuclight green assay (Step 2) of 94%.

Take B7: the IC50 (M), Incucyte human TDC HepG2-Nuclight green assay, E:T 15:1, 72 h was 2.13e-09 M and the Max % Killing, Incucyte human TDC HepG2-Nuclight green assay, 72 h was 90%.

The molecule B8 showed an IC50 (M), Incucyte human TDC HepG2-Nuclight green assay, E:T 15:1, 72 h of 1.72e-09 M and a Max % Killing, Incucyte human TDC HepG2-Nuclight green assay, 72 h of 94%.

In turn, B9 had an IC50 (M), Incucyte human TDC HepG2-Nuclight green assay, E:T 15:1, 72 h of 2.14e-09 M and a Max % Killing, Incucyte human TDC HepG2-Nuclight green assay, 72 h of 85%.

Consider B10, for which the HepG2 on Incucyte IC50 (M), human TDC, E:T 15:1, 60 h amounted to 6.83e-10 M; the HepG2 on Incucyte Max % killing, 60 h stood at 83%; the Huh7 on xCELLigence IC50 (M), human TDC, E:T 15:1, 60 h was 2.9e-10 M; the Huh7 on xCELLigence Max % killing, 60 h is 95%. The molecule further had an IC50 (M), Incucyte human TDC HepG2-Nuclight green assay, E:T 15:1 (Step 2) of 7.02e-10 M and a Max % Killing, Incucyte human TDC HepG2-Nuclight green assay (Step 2) of 91%.
